Molecular target: EGFRvIII (表皮生长因子受体III型突变体) (human) (UniProt P00533)
Test: flow cytometry; antibody supernatant on EGFRvIII-PBMC engineered cells, detected with anti-mouse-APC IgG

结合率 (APC阳性比率): 93.7%
B1: Anti EGFRvIII抗体 (抗EGFRvIII单克隆抗体) (antibody, V domains shown)
VH: QVQTQQSGTELVRPGALVKLSCKPSGFNIKDYYMHWVKQRPEQGLEWIGWIDPENGKTKYAPKFQGKAIITADRSSNTAYLQLSSLTSEDTAVYYCAGTADWGQGTTVTVSS
VL: DIQLTQSPLTLSVSIGQPASISCKSSQSLLHSDGETYLNWLLQRPGQSPKRLIYLVSKLDSGVPDRFTGTGSGTDFTLKISRVEAEDLGVYYCWQGKHFPYTFGGGTKLEI
